Source: patent publication US11306137B2, “Antibody binding agents that bind Acinetobactor and uses thereof” (priority 2015, dated 2022)
Entries after “also recorded” stand apart in the source; their conditions may differ.

Legend:
A. baumannii HUMC1 [1] = assay: Lethal bloodstream (i.v. tail-vein) infection model, survival; format: in vivo, mice; settings: for protection against infection (survival): 2×10^7 HUMC1 i.v., treated once i.v., FIG. 2; for survival: HUMC1 i.v., FIG. 3 / FIG. 7B
Experimental: (§1) To determine if C8 could treat, inhibit and/or prevent A. baumannii induced sepsis, mice were infected i.v. via the tail-vein with 2×10^7 hyper-virulent A. baumannii HUMC1 and were treated once i.v. with either protein-G purified C8 mAb (approximately 10 or 20 μg doses) or an isotype-control antibody in a saline buffer. […] In a second experiment, mice were similarly infected and the C8 MAb was administered once i.v. in saline buffer at a low (5 μg) and very low (0.5 μg) dose.
(§2) Male C3HeB/Fe mice (Jackson Labs) between the ages of 7-10 wk were used for all experiments. All animal work was conducted following approval by the Institutional Animal Use and Care Committee at the University of Southern California, in compliance with the recommendations in the Guide for the Care and Use of Laboratory Animals of the National Institutes of Health.
(§3) For the bloodstream infection model, mice were infected intravenously via the tail-vein with designated inocula of A. baumannii isolates. An oropharyngeal model of aspiration pneumonia that recapitulates hospital- or ventilator-associated pneumonia (VAP) relevant to ICU populations was used. In brief, mice were sedated with isoflurane, hung by their maxillary incisors, tongues held to prevent swallowing, and 50 μL of bacterial inocula was placed in the trachea to allow inoculation of the organisms into the lungs by reflexive aspiration.

A. baumannii HUMC1 [2] = assay: Immunogold transmission electron microscopy; format: binding; settings: 40,000× magnification
Experimental: Mid-log-growth A. baumannii cultures were washed twice incubated with primary antibody (200 μg/mL) at room temperature for 30 min, washed three times in PBS, and resuspended in 50 μL PBS. Goat anti-mouse IgG 20 nm Gold Conjugated (TedPella Inc.) was added to each tube at a final concentration of 0.8 μg/mL and incubated at room temperature for 30 min. Bacteria were washed, pelleted, and resuspended in 500 μL of half-strength Karnovsky's Fixative (2% paraformaldehyde and 2.5% gluteraldehyde in 0.1M phosphate buffer) for 2 hours at room temperature. Following incubation, the pellet was dislodged from the bottom of the tube using a bent stick and allowed to sit in fixative overnight. After overnight fixation, fixative was carefully aspirated off and 1 mL of PBS was carefully added to the tube in order to prevent agitation of the pellet. The pellet was then post-fixed in 1% Osmium Tetroxide for 1 hour and stained with 1% Uranyl Acetate overnight. The pellet was then put in 15% BSA for 2 hours and subsequently subjected to another treatment with the half-strength Karnovsky's Fixative to harden. Pellets were washed in water, dehydrated, embedded in Epon, sectioned, and placed on copper grids. Electron Micrographs were taken on a JEOL JEM-2100 Microscope operating at 80 kV.

[3] = test system: pili preparations from A. baumannii; assay: Western blot of pili preparations (proteinase K or periodate treated); format: binding
Experimental: Since it appeared that C8 bound to the pili on the surface of the bacteria, an established protocol was to sheer pili off the bacteria in an attempt to more accurately determine the epitope targeted by C8. To distinguish protein from carbohydrate targets, the pili preparation was divided into three portions: one fraction was treated with proteinase K, one fraction was treated with periodate to degrade carbohydrates, and one fraction was untreated. The pili preparations were run in a western blot and stained with C8 or isotype control MAb.

A. baumannii HUMC1 [4] = assay: Lethal bloodstream (i.v. tail-vein) infection model, survival; format: in vivo, mice; settings: for protection against infection (survival): 100% lethal inoculum HUMC1 i.v., immediate treatment, FIG. 7A
A. baumannii HUMC1 [5] = assay: In vitro complement susceptibility (bacterial growth in mouse serum); format: cell-based; settings: heat-inactivated or complement-active CD-1 mouse serum; FIG. 6A
Experimental: Overnight cultures of A. baumannii were subcultured to log-phase, washed in PBS, and resuspended at 1×10^6 CFUs/mL in 3 mL HBSS containing 50% CD-1 mouse serum that had been either heat-inactivated at 57° C. for 30 minutes or not. Tubes were shaken (200 rpm) for 2 hr at 37° C. and bacterial expansion was quantified by serially diluting cultures on TSA plates and counting CFUs.

[6] = test system: A. baumannii cell surface; assay: Flow cytometry binding to A. baumannii cell surface
Experimental: Hybridoma pre-clones were selected for subcloning based on bacterial cell surface reactivity by flow cytometry. Briefly, A. baumannii was passaged to log phase, stained with the bacterial dye SYTO BC (LifeTech #B7277), then stained with pre-clone supernatant from 96-well plates at 4° C., rinsed, and counter-stained with CF 647-conjugated goat anti-mouse IgG (Sigma-Aldrich, #SAB4600182). Control samples were stained with mouse IgG1 isotype control mAb (R&D Systems, #MAB002). Percent positivity was determined by flow cytometry.
Hybridoma cell lines were propagated in 96-well flat-bottom plates in DMEM-20%, and supernatants were harvested from wells for initial flow cytometry screening to identify antibodies that bound to intact bacteria. In brief, A. baumannii isolates were passaged to log phase, stained with the bacterial dye SYTO BC (LifeTech #B7277), and incubated for 1 hr with undiluted supernatants collected from 96-well plates at 4° C. Cells were washed and counter-stained with a secondary antibody, CF647-conjugated goat anti-mouse IgG (Sigma-Aldrich, #SAB4600182). Control samples were stained with a mouse IgG1 isotype control MAb (R&D Systems, #MAB002) as a negative control, and mouse polyclonal HUMC1-immune serum as a positive control for bacterial binding. Hybridomas that tested positive for bacterial binding were subcloned by limiting dilution into 96-well plates to ensure clonality, expanded, and retested to confirm bacterial binding.

A. baumannii HUMC1 [7] = assay: Oropharyngeal aspiration pneumonia model, survival; format: in vivo, mice; settings: for survival: oropharyngeal aspiration of HUMC1
Experimental: as §1, §2, §3

A. baumannii HUMC1 [8] = assay: Lung and blood bacterial burden and lung histopathology in aspiration pneumonia; settings: 24 hr post-infection
A. baumannii HUMC1 [9] = assay: Blood bacterial density, plasma cytokines and sepsis biomarkers after i.v. infection
[10] = 22 hr post-infection, relative to controls

B1: C8: mouse IgG1-kappa monoclonal antibody from hybridoma 9.1C8 (ATCC PTA-122177); light chain SEQ ID NO:2, heavy chain SEQ ID NO:3 (antibody, listed as Mus musculus, V domains shown)
VH: EVQLQQSGPELVKPGASVKISCKASGYSFTGYTMNWVKQSHGKSLEWIGRINPYNGDSFYNQKFKGKATLTVDKSSNIAHMEFLSLTSEDSAVYYCGRSGDGPWFAYWGQGTLVTVSA
VL: LPLSLPVSLGDQASISCRSSQSIVHNNGNTYLEWYLQKPGQSPKLLIYKVSNRFSGVPDRFSGSGSGTDFTLKISRVEAEDLGVYYCFQGSHVPLTFGAGTKLEIKGSRS
- protection against infection (survival) (A. baumannii HUMC1 [1]; approximately 10 μg): 100%
- protection against infection (survival) (A. baumannii HUMC1 [1]; approximately 20 μg): 100%
- survival (A. baumannii HUMC1 [1]; 0.5 μg once i.v. immediately): markedly improved survival; also recorded: significantly improved survival
- survival (A. baumannii HUMC1 [1]; 5 μg once i.v. immediately): markedly improved survival; also recorded: fully protective
- physical binding site on the bacterial surface by electron microscopy (A. baumannii HUMC1 [2]): bound to the pili on the bacterial surface; also recorded: binding to the pili
- western blot signal, periodate treated pili fraction ([3]; periodate treatment (degrades carbohydrates)): eliminated completely
- western blot signal, proteinase K treated pili fraction ([3]; proteinase K treatment): unchanged
- western blot signal, untreated pili fraction ([3]; untreated): large conglomeration at the top of the gel
- epitope / target on A. baumannii ([3]; western blots and flow binding to a capsule-mutant bacterial strain): binds to capsular polysaccharide
- protection against infection (survival) (A. baumannii HUMC1 [4]; high dose (approximately 150 μg)): 100%
- protection against infection (survival) (A. baumannii HUMC1 [4]; low dose (approximately 50 μg)): 100%
- survival, delayed treatment (A. baumannii HUMC1 [4]; i.v. infection, treated i.p. (50 μg) at 30 min post-infection, FIG. 7C): rescued from lethal infection
- survival, delayed treatment (monotherapy) (A. baumannii HUMC1 [4]; i.v. infection, treated i.p. at 1 hr post-infection, C8 150 μg, colistin 0.0125 mg/kg, FIG. 7D): not all mice survived; also recorded: minimally improved survival; also recorded: too late
- impact on bacterial growth in vitro (A. baumannii HUMC1 [5]): minimal impact
- binding to the cell surface of A. baumannii by flow cytometry ([6]; HUMC1 strain): specifically bound; also recorded: to the same extent as polyclonal immune serum
- surface binding to other clinical isolates by flow cytometry ([6]; HUMC6, C14, ATCC 17978, AB0071, UH7007 (Table 7)): representative of 5 other strains; also recorded: Surface binding was confirmed to 4 other diverse clinical isolates
- survival, delayed treatment (A. baumannii HUMC1 [7]; lung model, therapy administered 4 hr post-infection): fully protective
- survival (A. baumannii HUMC1 [7]; 5 μg i.v., FIG. 4 / FIG. 9A): nearly fully protective; also recorded: markedly improved survival
- survival (A. baumannii HUMC1 [7]; 50 μg i.p., FIG. 9B): fully protective
- reduction of bacterial burden in the blood vs control mice (A. baumannii HUMC1 [8]; 50 μg C8, FIG. 9C): 7 log
- reduction of bacterial burden in the lungs vs control mice (A. baumannii HUMC1 [8]; 50 μg C8, FIG. 9C): 2 log
- lung histology (H&E) (A. baumannii HUMC1 [8]; FIG. 9D-E): appeared normal; also recorded: maintained normal lung architecture
- plasma IL-6 (A. baumannii HUMC1 [9]; 2 hr after infection, FIG. 8B): significantly reduced
- plasma TNF (A. baumannii HUMC1 [9]; 2 hr after infection, FIG. 8B): significantly reduced
- anion gap (A. baumannii HUMC1 [9]; [10]): normal
- base deficit (A. baumannii HUMC1 [9]; [10]): normal
- blood glucose (A. baumannii HUMC1 [9]; [10]): normal
- blood pH (A. baumannii HUMC1 [9]; [10]): normal
- serum bicarbonate (A. baumannii HUMC1 [9]; [10]): normal
- plasma IL-1β (A. baumannii HUMC1 [9]; 22 hr post-infection, FIG. 8B): virtually undetectable
- plasma IL-10 (A. baumannii HUMC1 [9]; 22 hr post-infection, FIG. 8B): virtually undetectable
- blood urea nitrogen (BUN) levels (A. baumannii HUMC1 [9]; 22 hr post-infection, FIG. 8C): baseline
- physiology (biomarkers of sepsis) (A. baumannii HUMC1 [9]; between 2 and 24 hours, FIG. 8C): maintained baseline physiology
- bacterial density in the blood over time (A. baumannii HUMC1 [9]; over the next 20 h, 5 μg i.v., FIG. 8A): continued to decrease
- lower bacterial density in the blood than isotype control (A. baumannii HUMC1 [9]; two hours after treatment, 5 μg i.v., FIG. 8A): 1,000 fold
